This note sets out measurements from PMC10755736 (2023).

This test deals with Nck adaptor protein (Nck1), recombinant (UniProt P16333 1-377). Put plainly: MST.

Non-standard residues stand in square brackets, D forms with d. No end group written: not given here. pY = N[C@@H](Cc1ccc(OP(=O)(O)O)cc1)C(=O)O

B1: peptide Y474 (pY-containing Tir peptide) (peptide)
chain: EEHI[pY]DEVAAD
One may read the Kd as the free concentration of one partner at which half of the binding sites on the other are occupied at equilibrium, for simple one-to-one binding. As to B1, the Kd was 76.4 nM.
